Target: T1, Thermus thermophilus multidrug-resistance protein A (TmrA), C-terminal His10-tag (Thermus thermophilus, UniProt Q72J05 1-600)
T1 construct: Thermus thermophilus multidrug-resistance protein A (TmrA), subunit of the heterodimeric ABC transporter TmrAB; Produced and purified together with TmrB as the heterodimer TmrAB; also called His10-tagged subunit of TmrAB; not shown: His10, C-terminal, kept
T1 sequence (looked up): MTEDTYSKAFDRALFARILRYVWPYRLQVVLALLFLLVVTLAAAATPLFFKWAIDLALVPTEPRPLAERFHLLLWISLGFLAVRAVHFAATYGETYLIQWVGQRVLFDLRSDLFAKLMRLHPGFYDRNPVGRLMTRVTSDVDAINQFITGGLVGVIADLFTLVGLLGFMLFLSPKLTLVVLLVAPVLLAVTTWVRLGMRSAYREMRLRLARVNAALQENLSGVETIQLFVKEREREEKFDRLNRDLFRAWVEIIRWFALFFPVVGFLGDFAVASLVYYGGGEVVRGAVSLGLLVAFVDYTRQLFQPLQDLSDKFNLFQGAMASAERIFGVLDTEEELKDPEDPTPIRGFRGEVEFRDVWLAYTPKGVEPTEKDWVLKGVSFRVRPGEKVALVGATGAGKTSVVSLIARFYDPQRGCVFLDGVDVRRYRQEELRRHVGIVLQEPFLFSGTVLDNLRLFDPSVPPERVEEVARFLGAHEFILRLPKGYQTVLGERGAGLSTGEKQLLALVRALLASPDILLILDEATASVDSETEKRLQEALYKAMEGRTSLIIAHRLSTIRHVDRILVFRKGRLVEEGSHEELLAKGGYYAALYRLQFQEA
Test: native gel or EMSA; blue native PAGE of purified TmrAB (1.3 µg, 500 nM; produced in E. coli and purified as a whole via His10 on TmrA and by SEC) in DDM or reconstituted in MSP1D1 nanodiscs; labelled with tris- or hexaNTA-Alexa647 (450 nM), in-gel fluorescence
Details: both partners purified

binding result: binds
B1: Thermus thermophilus multidrug-resistance protein B (TmrB) (natural protein, UniProt Q72J04 1-578, looked up)
chain: MTGRSAAPLLRRLWPYVGRYRWRYLWAVLAGLVSIFFFVLTPYFLRLAVDAVQAGRGFGVYALAIVASAALSGLLSYAMRRLAVVASRQVEYDLRRDLLHHLLTLDRDFYHKHRVGDLMNRLNTDLSAVREMVGPGILMGSRLSFLVLLAFLSMYAVNARLAFYLTLILPGIFLAMRFLLRLIDRRYREAQEVFDRISTLAQEAFSGIRVVKGYALERRMVAWFQDLNRLYVEKSLALARVEGPLHALLGFLMGFAFLTVLWAGGAMVVRGELSVGELVQFNAYLAQLTWPILGLGWVMALYQRGLTSLRRLFELLDEKPAIRDEDPLPLALEDLSGEVRFEGVGLKRDGRWLLRGLTLTIPEGMTLGITGRTGSGKSLLAALVPRLLDPSEGRVYVGGHEARRIPLAVLRKAVGVAPQEPFLFSETILENIAFGLDEVDRERVEWAARLAGIHEEILAFPKGYETVLGERGITLSGGQRQRVALARALAKRPKILILDDALSAVDAETEARILQGLKTVLGKQTTLLISHRTAALRHADWIIVLDGGRIVEEGTHESLLQAGGLYAEMDRLQKEVEA
notes: Thermus thermophilus multidrug-resistance protein B (TmrB), subunit of the heterodimeric ABC transporter TmrAB; Produced and purified together with TmrA as the heterodimer TmrAB; also called subunit of TmrAB

Reference: article PMC7083852, “Ultrafast in-gel detection by fluorescent super-chelator probes with HisQuick-PAGE” (Communications Biology, 2020)
